The numbers were not newly measured in article PMC6272133, which cites them from elsewhere.

In general, Kd refers to a measure of binding affinity in units of concentration.

The target of the series is LLT1 (Homo sapiens) (UniProt Q9UHP7). The series can be described thus: SPR. A general note: Surface plasmon resonance follows binding to a sensor surface in real time, without labels.
Sequence of UniProt Q9UHP7 (Q9UHP7 60-191): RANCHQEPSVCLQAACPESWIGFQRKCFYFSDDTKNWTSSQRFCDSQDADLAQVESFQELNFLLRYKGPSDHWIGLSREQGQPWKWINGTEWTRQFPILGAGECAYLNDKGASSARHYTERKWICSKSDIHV

In the case of NKRP1A ECD (from UniProt Q12918), the Kd was 48 µM.
